Tested on: MS2 coat protein
Experiment: apparent KD of MS2 coat protein; designed switch direction (-1 OFF switch, 1 ON switch): -1; higher = weaker reporter binding
Summary of the method: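 Designed RNA switches with common flanks were transcribed on Illumina chips by stalled E. coli RNA polymerase and titrated with SNAP-549-labelled MS2 coat protein, from 0.7 or 1.5 nM doubling to 3 µM, in Tris-HCl pH 7.5 buffer with KCl, MgCl2, BSA, DTT, tRNA and Tween-20. Steps lasted 0.8–1.5 h (lowest) to 10–20 min (highest). Titrations ran without input, with 200 uM small-molecule ligand, or with an oligonucleotide input. Normalised cluster fluorescence was curve-fitted, and apparent KD is the per-design median over clusters.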

[1] = input ligand: microRNA oligo, concentration not stated
[2] = Eterna round: R95, input ligand: microRNA oligo, concentration not stated
[3] = Eterna round: R95, input ligand: FMN 200 uM
[4] = Eterna round: R95, input ligand: none

| Sequence | apparent KD of MS2 coat protein (input ligand: FMN 200 uM) [µM] | apparent KD of MS2 coat protein [1] [µM] | apparent KD of MS2 coat protein (input ligand: none) [µM] | apparent KD of MS2 coat protein [2] [µM] | apparent KD of MS2 coat protein [3] [µM] | apparent KD of MS2 coat protein [4] [µM] |
| --- | --- | --- | --- | --- | --- | --- |
| ACAUGUAAUGCAGGAUAUCGGACACAUGAGGAUCACCCAUGUGACCUGAGGUAUUGCUAAGAGUCUGAGAAGGGUAUGUACAUG [Ex NG2 #51] (Eterna round: R96, puzzle: Exclusion NG 2) | 0.0287 | 0.0157 | 0.0204 | – | – | – |
| CCUCGACAUGAGGAUCACCCAUGUCAGGAUAUUGUGUUUUGGGUUUUUUACCUUUUGGCAAGAAGGGAUGUGUG [LRO-Excl1-19] (puzzle: Exclusion 1) | – | – | – | 0.0144 | – | – |
| ACGCAUUGCCUUUGGUAGUGCGUAACAUGAGGAUCACCCAUGUAGGAUAUGGUAGGCUUUGCUUACCAGAAGGACAUAAUAAUA [Mat - Exclusion NG 3 - Mod of JL - D1] (Eterna round: R96, puzzle: Exclusion NG 3) | 0.0542 | 0.0227 | 0.0266 | – | – | – |
| UUAAUGAUUGUGAGGAUAUUUGAUAGAUAGAUAUUAGAGAAGGUACAUGAGGAUCACCCAUGUGUGAUUAGAGA [Brourd's EX4 #70] (Eterna round: R97, puzzle: Brourd's mod of Exclusion 4) | 0.164 | – | 0.0754 | – | – | – |
| CAUACACAUGAGGAUCACCCAUGUGAGGAUAUGCGUACGUUGUCCGUAGGCGACGUGCGCAGAAGGCGCGUGAG [JL-ex1-3.14 Eli mod] (puzzle: Exclusion 1) | – | – | – | 0.0453 | – | – |
| UAUAUAUAGUAAGGAUAUGUAUAUAUUUUAUUAACAGAAGGUACUGACAUGAGGAUCACCCAUGUUUUAGUGUGGGCAUGUAGA [JMF's solution 69] (Eterna round: R96, puzzle: Exclusion NG 1) | – | 0.0552 | – | – | – | – |
| UAUUAACAAGCGAGAUCCUACAUGAGGAUCACCCAUGUGCUCGUCUUAUAAGGUACUGUGACGAAAGUCACGGUACC [Eli 91 v37] (Eterna round: R97, puzzle: Sensor, turn-off variant 1) | 0.0195 | – | 0.021 | – | – | – |
| AAUAACAAGCAGAUCCUAAACAUGAGGAUCACCCAUGUGUUCGUCUUGUAAAGUACUAUCACGAAAGUGAUAGUACA (Eterna round: R97, puzzle: Sensor, turn-off variant 1) | 0.0687 | – | 0.0662 | – | – | – |
| AGUUGUUGCGCAGGAUAUGAGGAUCACCCAUAGAAGGAUAUCGAAAGAGAAGGUCUGAGGAUUACCCAGAAGGGCGUGAUGACA [pwkr exNG2 2xF5 2xFMN.8] (Eterna round: R96, puzzle: Exclusion NG 2) | 0.905 | 0.13 | 0.184 | – | – | – |
| GUUUUCAGACGGAGAUCCUACAUGAGGAUCACCCAUGUCUCUCUUGCUAAUUGCUCGUCUUUUCCUCCUCUGUUCUC [Elimod 35 - Jieux - Sensor, turn-off variant 1] (Eterna round: R97, puzzle: Sensor, turn-off variant 1) | 0.457 | – | 0.567 | – | – | – |
| CUGGUCCGAGGAUAUAUUAAGUGAAACAUGAGGAUCACCCAUGUUAUUUAAUGGAUGUAAAUAGAAGGCGGACUAG [JL-ex5-3.12] (puzzle: Exclusion 5) | – | – | – | 0.037 | 0.0299 | 0.0428 |
| CUGUUUUUCGCAGGAUAUGCUUCUCCUUUAUUAGCAGAAGGGCGUUAAACAUGAGGAUCACCCAUGUAUGGUAAUGAUAUUUUC [JR_ExcNG1_Sub060] (Eterna round: R96, puzzle: Exclusion NG 1) | 0.145 | 0.0523 | 0.0558 | – | – | – |
| AUUACAUGAGGAUAUACAUGAGGAUCACCCAUGUAAAUAGCAGUGGUAGUCAACUCGAGUAGAAGGCGUAACGU [Eternabot (L1) Solution 51] (Eterna round: R97, puzzle: Exclusion 3) | 0.0678 | – | 0.0587 | – | – | – |
| ACAUGUCAUCGAGGAUAUUGGACACAUGAGGAUCACCCAUGUACCCGGAGGCUCUACUAUGAGUUCGAGAAGGCGAUGUACAUG [Ex NG2 #74] (Eterna round: R96, puzzle: Exclusion NG 2) | 0.169 | 0.0195 | 0.0256 | – | – | – |
| UUAGGCUGAAGAUCAAUUAAUUAACAUGAGGAUCACCCAUGUAAGGAUAUCAGCUCGUUUAGAGCUGAGAAGGUACAUGCAGCC [ExNG3/18-A2] (Eterna round: R96, puzzle: Exclusion NG 3) | 0.351 | 0.121 | 0.118 | – | – | – |
| AAGGAUAGAGGAUAUACAUAGAUACAGAUUCGUGUAGUCCUACAUGAGGAUCACCCAUGUAGAAGGCUAUCCUA [Fiskers Ex 2 - 13] (puzzle: Exclusion 2) | – | – | – | 0.0113 | – | – |
| GCCGAGUGAGGAUAUACAUGAGGAUCACCCAUGUAAACACGAAAGCAAGUGUCCCUCAGUAGAAGGCGCCAGGA [Xeanonis] (puzzle: Exclusion 3) | – | – | – | 0.0139 | 0.0182 | 0.014 |
| CCUAUGUUAGGAUAUCGGCAUCCCGGGCAGGUAGCCAGGACCGAGAAGGGACAUGAGGAUCACCCAUGUCAAAU [Eternabot (Original) Solution 4] (Eterna round: R97, puzzle: Exclusion 4) | 0.0159 | – | 0.0191 | – | – | – |
| GGUAGAGUGGUAGGAUAUCCGUCUGUUUCAGUCGGAGAAGGGCCACAGUCACUGGGUCCUAAUAUCAUGGAGACCUGAUCUACU [pwkr exNG1 F6.13] (Eterna round: R96, puzzle: Exclusion NG 1) | 0.785 | 0.337 | 0.385 | – | – | – |
| CUGGUCCGAGGAUAUAUGAUGUGAAACAUGAGGAUCACCCAUGUAAUAUUAUGGAAGUAAAUAGAAGGCGGACUAG [Mat - Exclusion 5 - JL mod - D34] (puzzle: Exclusion 5) | – | – | – | 0.0495 | 0.0286 | 0.037 |
| CUCCGGCGUGUAGGAUAUGGUUCCGAUUAGGAUCCAGAAGGACAUGAGGAUCACCCAUGUACAUGUCGUCGGUCGUCACCGGGC [salish99_ExNG1_r04_211] (Eterna round: R96, puzzle: Exclusion NG 1) | 0.107 | 0.0241 | 0.0294 | – | – | – |
| UUGUUCCAUGUAGGAUAUGCAUAUUCUUAUUAUGCAGAAGGACAUGAGGAUCACCCAUGUAUGUUAUUAUUAUAUGUUACAUGU [Design 1] (Eterna round: R96, puzzle: Exclusion NG 1) | – | 0.0567 | – | – | – | – |
| AAUUUACAUGAGGAUCACCCAUGUCAGGAUAUGGUUUUAUUUUUUUCUUUUCUUGAUUCCAGAAGGGACAGUUA (puzzle: Exclusion 1) | – | – | – | 0.0816 | – | – |
| AGAGAAUACUCAGGAUAUCUGAAUAGAUAGAGAAGAGAAGGGAGACAUGAGGAUCACCCAUGUGAAGUCUUGAGGCUGCAUGGA [Prohibition 24 - Jieux - Exclusion NG 1] (Eterna round: R96, puzzle: Exclusion NG 1) | 0.165 | 0.0856 | 0.209 | – | – | – |
| CCAUCACAUGAGGAUCACCCAUGUGAGGAUAUGUUUUUGGUGCGUAUAAAGCCUGGGAACAGAAGGUACAGGGA [Eternabot (L2) Solution 50] (Eterna round: R97, puzzle: Exclusion 1) | 0.0153 | – | 0.0129 | – | – | – |

Source: the supplement of paper PMC9170038
